Experimental data from US20240269276A1 (HARBOUR BIOMED SHANGHAI, published 2024).
Read-outs that look alike come from different tables or passages of the source.

T1: human CD73 on CHO-K1 cells overexpressing human CD73 (human, UniProt P21589 27-549)
T1 construct: whole, on cells; also called CHO-K1-hCD73
T1 sequence (looked up): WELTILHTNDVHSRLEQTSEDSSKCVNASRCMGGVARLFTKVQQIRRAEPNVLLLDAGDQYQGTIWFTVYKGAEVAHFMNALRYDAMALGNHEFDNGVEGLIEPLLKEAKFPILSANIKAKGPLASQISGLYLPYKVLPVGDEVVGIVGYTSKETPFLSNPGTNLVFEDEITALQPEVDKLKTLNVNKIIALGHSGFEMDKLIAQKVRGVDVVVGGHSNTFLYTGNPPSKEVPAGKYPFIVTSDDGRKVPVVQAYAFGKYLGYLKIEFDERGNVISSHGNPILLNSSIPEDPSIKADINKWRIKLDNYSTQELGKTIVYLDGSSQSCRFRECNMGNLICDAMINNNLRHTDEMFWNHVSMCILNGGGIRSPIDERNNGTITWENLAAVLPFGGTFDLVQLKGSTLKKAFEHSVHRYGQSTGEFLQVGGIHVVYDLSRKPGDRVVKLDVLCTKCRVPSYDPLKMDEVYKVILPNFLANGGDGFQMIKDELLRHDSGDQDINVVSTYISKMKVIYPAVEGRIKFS


Key:
[1] = target: T2, human PD-L1 on CHO-K1 cells overexpressing human PD-L1 (human, UniProt Q9NZQ7 19-290); test: flow cytometry on CHO-K1 cells overexpressing human PD-L1 (CHO-K1/hPD-L1)
T2 construct: whole, on cells; also called CHO-K1/hPD-L1; CHO-K1-hPD-L1
Protocol: (§1) In the example, in order to study the in vitro binding activity of the PD-L1 antigen-binding protein to human/cynomolgus monkey PD-L1, cell-level binding experiments were performed using CHO-K1 cell strains overexpressing human PD-L1 (CHO-K1/hPD-L1, GenScript, M00543) or CHO-K1 cell strains overexpressing cynomolgus monkey PD-L1 (CHO-K1/cynoPD-L1, GenScript, M00573). Briefly, the PD-L1 cells were digested and resuspended in an F-12K complete medium, and the cell density was adjusted to 1×10⁶ cells/mL. The cells were seeded in a 96-well V-bottom plate (Corning, 3894) at 100 μL/well, followed by the addition of the test antigen-binding proteins serially diluted 5-fold with concentrations that were twice the final concentrations at 100 μL/well. The mixtures were well mixed. The highest final concentration of the antigen-binding proteins was 100 nM. A total of 8 concentrations were set. An isotype antibody hIgG1 iso was used as a control. The cells were incubated away from light at 4° C. for 1 h. Thereafter, the cells in each well were rinsed twice with 100 μL of pre-cooled PBS, and centrifuged at 500 g at 4° C. for 5 min, and then the supernatant was discarded. Then 100 μL of a fluorescent secondary antibody (goat anti-human IgG (H+L) secondary antibody, Alexa Fluor 488 conjugate, Invitrogen, A11013, diluted at the ratio of 1:1000) was added to each well. The plate was incubated away from light at 4° C. for 30 min. The cells in each well were then rinsed twice with 200 μL of pre-cooled PBS and centrifuged at 500 g at 4° C. for 5 min, and then the supernatant was discarded. Finally, a pre-cooled PBS was added at 200 μL/well to resuspend the cells. Fluorescence signal values were read using a BD FACS CANTOII. Fluorescence signal values were read using a flow cytometer BD FACS CANTOII or FACS ACEA, and the data were processed and analyzed using FlowJo v10 (FlowJo, LLC) software. The data were processed and analyzed by plotting using GraphPad Prism 8 software, and binding curves, EC50 values and other parameters were acquired through four-parameter nonlinear fitting.

[2] = target: T2, human PD-L1 on CHO-K1 cells …; test: flow cytometry on CHO-K1 cells overexpressing human PD-L1 (CHO-K1/hPD-L1) [continued) D]
Protocol: as §1

[3] = target: T2, human PD-L1 on CHO-K1 cells …; test: flow cytometry on CHO-K1 cells overexpressing human PD-L1 (CHO-K1-hPD-L1) [continued) E]
Protocol: (§2) In order to investigate the binding activity of the CD73×PD-L1 bispecific antibody to human CD73 and PD-L1, the binding experiment at the cellular level was performed using CHO-K1 cell strains overexpressing human CD73 or PD-L1 (CHO-K1-hCD73 or CHO-K1-hPD-L1). Briefly, the CHO-K1-hCD73 and CHO-K1-hPD-L1 cells were digested and resuspended in an F-12K complete medium, and the cell density was adjusted to 1×10⁶ cells/mL. The cells were seeded in a 96-well V-bottom plate (Corning, #3894) at 100 μL/well, followed by the addition at 100 μL/well and centrifugation at 500 g at 4° C. for 5 min, and then the supernatant was discarded. Antibodies were 3-fold diluted to a maximum final concentration of 50 nM, and a total of 8 concentrations were set. 100 μL of the diluted antibodies was added to the cells, and the cells were incubated away from light at 4° C for 1 h. Thereafter, the cells in each well were rinsed twice with 100 μL of pre-cooled PBS, and centrifuged at 500 g at 4° C. for 5 min, and then the supernatant was discarded. Then 100 μL of a fluorescent secondary antibody (goat anti-human IgG (H+L) secondary antibody, Alexa Fluor® 488 conjugate, Invitrogen, #A11013, diluted at the ratio of 1:1000) was added to each well. […] Finally, the cells in each well were resuspended in 200 μL of pre-cooled PBS, and the fluorescence signal values were read using a BD FACS CANTOII.

[4] = target: T2, human PD-L1 on CHO-K1 cells …; test: flow cytometry on CHO-K1 cells overexpressing human PD-L1 (CHO-K1-hPD-L1) [continued) F]
Protocol: as §2

[5] = target: T3, cynomolgus monkey PD-L1 on CHO-K1 cells overexpressing cynomolgus monkey PD-L1 (cynomolgus monkey, UniProt G7PSE7 19-290); test: flow cytometry on CHO-K1 cells overexpressing cynomolgus monkey PD-L1 (CHO-K1/cynoPD-L1)
T3 construct: also called CHO-K1/cynoPD-L1; GenScript M00573
Protocol: as §1

[6] = target: T4, human PD-L1 protein with histidine tag (ACROBiosystems #PD-1-H5258) (human, UniProt Q9NZQ7 19-238); test: BLI (Octet Red96e); His-tagged human PD-L1 captured on HIS1K sensor, antibody at 60 nM; 1:1 fit
T4 construct: Bought protein; also called His PD-L1; human PD-L1 proteins; not shown: histidine tag
Protocol: In this example, affinity determination was performed on the affinity-matured mutants of PR002082 using an Octet Red96e instrument. […] The binding kinetics between the antigen and the antibody was analyzed by the biolayer interferometry (BLI) technique using an Octet molecular interaction analyzer (ForteBio, model: Octet Red96e).
When the affinity of the antigen for the antibody was determined, the rotation speed of the sensor was set at 1000 rpm/min. The 2 HIS1K sensors placed in a column were first equilibrated for 10 min in test buffer, then His PD-L1 was captured with the HIS1K sensor at a capture height of 0.9-1.1 nm, then the HIS1K sensor was equilibrated for 2 min in the test buffer, then the HIS1K sensor was bound to the antigen-binding protein (60 nM and 0 nM) for 3 min, and finally the mixture was dissociated for 15 min. The HIS1K sensor was immersed in a 10 mM glycine solution (pH 1.5) for regeneration to elute the proteins bound to the sensor.
When data analysis was performed using Octet Data Analysis software (Fortebio, version 11.0), the reference signals were subtracted by a single reference mode (reference well), the data were fitted by a “1:1 Local/full fitting” method, and the kinetic parameters of the binding of the antigen to the antibody were calculated to obtain Kₒₙ (1/Ms) values, Kdis (1/s) values and KD (M) values.

[7] = target: T2, human PD-L1 on CHO-K1 cells …; test: flow cytometry on CHO-K1 cells overexpressing human PD-L1 (CHO-K1/hPD-L1) [continued) F]
Protocol: as §1

[8] = target: T3, cynomolgus monkey PD-L1 on CHO-K1 cells …; test: flow cytometry on CHO-K1 cells overexpressing cynomolgus monkey PD-L1 (CHO-K1/cynoPD-L1); remark: listed apart in the source
Protocol: as §1

[9] = target: T2, human PD-L1 on CHO-K1 cells …; test: flow cytometry on CHO-K1 cells overexpressing human PD-L1 (CHO-K1/hPD-L1) [continued) E]
Protocol: as §1

[10] = target: T3, cynomolgus monkey PD-L1 on CHO-K1 cells …; test: flow cytometry on CHO-K1/cynoPD-L1 cells
Protocol: as §1

[11] = target: T1, human CD73 on CHO-K1 cells …; test: flow cytometry on CHO-K1 cells overexpressing human CD73 (CHO-K1-hCD73)
Protocol: In order to investigate the binding activity of the CD73×PD-L1 bispecific antibody to human CD73 and PD-L1, the binding experiment at the cellular level was performed using CHO-K1 cell strains overexpressing human CD73 or PD-L1 (CHO-K1-hCD73 or CHO-K1-hPD-L1). Briefly, the CHO-K1-hCD73 and CHO-K1-hPD-L1 cells were digested and resuspended in an F-12K complete medium, and the cell density was adjusted to 1×10⁶ cells/mL. The cells were seeded in a 96-well V-bottom plate (Corning, #3894) at 100 μL/well, followed by the addition at 100 μL/well and centrifugation at 500 g at 4° C. for 5 min, and then the supernatant was discarded. Antibodies were 3-fold diluted to a maximum final concentration of 50 nM, and a total of 8 concentrations were set. 100 μL of the diluted antibodies was added to the cells, and the cells were incubated away from light at 4° C for 1 h. Thereafter, the cells in each well were rinsed twice with 100 μL of pre-cooled PBS, and centrifuged at 500 g at 4° C. for 5 min, and then the supernatant was discarded. Then 100 μL of a fluorescent secondary antibody (goat anti-human IgG (H+L) secondary antibody, Alexa Fluor® 488 conjugate, Invitrogen, #A11013, diluted at the ratio of 1:1000) was added to each well. The plate was incubated away from light at 4° C. for 30 min. The cells in each well were then rinsed twice with 200 μL of pre-cooled PBS and centrifuged at 500 g at 4° C. for 5 min, and then the supernatant was discarded. Finally, the cells in each well were resuspended in 200 μL of pre-cooled PBS, and the fluorescence signal values were read using a BD FACS CANTOII.

T2 sequence (Q9NZQ7 19-290): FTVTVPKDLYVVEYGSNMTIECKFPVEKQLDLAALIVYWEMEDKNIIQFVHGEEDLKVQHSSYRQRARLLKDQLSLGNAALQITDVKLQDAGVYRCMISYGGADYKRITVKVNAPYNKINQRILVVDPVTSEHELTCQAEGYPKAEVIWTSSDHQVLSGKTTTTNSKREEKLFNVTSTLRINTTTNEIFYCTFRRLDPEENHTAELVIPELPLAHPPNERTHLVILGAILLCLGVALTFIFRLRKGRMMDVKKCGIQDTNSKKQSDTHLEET
T4 sequence (Q9NZQ7 19-238 limits assumed): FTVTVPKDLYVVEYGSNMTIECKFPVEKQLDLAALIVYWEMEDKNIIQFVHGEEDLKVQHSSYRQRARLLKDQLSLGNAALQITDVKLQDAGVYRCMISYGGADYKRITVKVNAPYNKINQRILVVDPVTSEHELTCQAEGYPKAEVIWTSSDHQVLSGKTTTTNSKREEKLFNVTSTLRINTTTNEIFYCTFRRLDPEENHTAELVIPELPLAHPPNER
T3 sequence (G7PSE7 entry or part of it limits assumed): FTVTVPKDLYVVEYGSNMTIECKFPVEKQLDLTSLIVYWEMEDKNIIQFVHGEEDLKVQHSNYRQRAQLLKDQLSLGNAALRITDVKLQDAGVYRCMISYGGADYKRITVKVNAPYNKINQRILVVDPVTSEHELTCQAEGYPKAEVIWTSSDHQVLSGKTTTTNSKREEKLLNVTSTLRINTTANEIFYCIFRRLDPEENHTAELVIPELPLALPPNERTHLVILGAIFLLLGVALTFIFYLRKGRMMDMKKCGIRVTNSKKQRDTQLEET

Binder | Kd [6] [nM] | koff [6] [s⁻¹] | kon [6] [M⁻¹ s⁻¹] | EC50 [7] [nM] | Maximum MFI [7] [MFI] | EC50 [9] [nM] | Maximum MFI [9] [MFI] | binding result [10] | further results
PR002082 (antibody, human IgG1, V domains shown, HCAb; also called PTM variant of PR000960 (N28T, N31S)) VH: QVQLVESGGGVVQPGMSLRLSCAASGFTFSSYGMYWVRQAPGKGQEWVAIIWYDGTKKHYADSVKGRFTISRDNSKNTLYLEMNSLRVEDTAVYYCAKNRAIFGVVPDASDIRGQGTMVTVSS | 5.61 | 0.00118 | 210000 | 1.31 | 430000 | 1.24 | 381000 |  | EC50 [1]: 0.86 nM; Maximum MFI [1]: 24500 MFI; EC50 [2]: 1.23 nM; Maximum MFI [2]: 387000 MFI; EC50 [3]: 1.17 nM; EC50 [4]: 2.93 nM; EC50 [5]: 1.52 nM; Maximum MFI [5]: 12100 MFI; EC50 [8]: 0.386 nM
PR005867 (antibody, human IgG1, V domains shown, The HC entry is used) VH: QVQLVESGGGVVQPGMSLRLSCAASGFTFSSYGMYWVRQAPGKGQEWVAIIWYDGTKKHYADSVKGRFTISRDNSKNTLYLEMNSLRVEDTAVYYCAKNRAIFGVIPDDSDIRGQGTMVTVSS | 1.85 | 0.000468 | 253000 |  |  | 1.14 | 388000 | binds | 
PR005868 (antibody, human IgG1, V domains shown, The HC entry is used) VH: QVQLVESGGGVVQPGMSLRLSCAASGFTFSSYGMYWVRQAPGKGQEWVAIIWYDGTKKHYADSVKGRFTISRDNSKNTLYLEMNSLRVEDTAVYYCAKNRALFGVIPDASDIRGQGTMVTVSS | 1.92 | 0.000386 | 201000 |  |  | 1.06 | 393000 | binds | 
PR005869 (antibody, human IgG1, V domains shown, The HC entry is used) VH: QVQLVESGGGVVQPGMSLRLSCAASGFTFSSYGMYWVRQAPGKGQEWVAIIWYDGTKKHYADSVKGRFTISRDNSKNTLYLEMNSLRVEDTAVYYCAKNRALFGVIPDDSDIRGQGTMVTVSS | 1.09 | 0.000262 | 241000 |  |  | 1.13 | 393000 | binds | 
PR006245 (antibody, human IgG1, V domains shown, The HC entry is used) VH: QVQLVESGGGVVQPGMSLRLSCAASGFDFSSYGMYWVRQAPGKGQEWVASIRYTGTEKHYADSVKGRFTISRDNSKNTLYLEMNSLRVEDTAVYYCAKNRAIFGVVPDASDIRGQGTMVTVSS | 1.09 | 0.000162 | 149000 | 0.964 | 405000 |  |  | binds | 
PR006247 (antibody, human IgG1, V domains shown, The HC entry is used) VH: QVQLVESGGGVVQPGMSLRLSCAASGFDFSSYGMYWVRQAPGKGQEWVASIRYTGTEKHYADSVKGRFTISRDNSKNTLYLEMNSLRVEDTAVYYCAKNRALFGVIPDASDIRGQGTMVTVSS | 1.18 | 0.000219 | 185000 | 1.01 | 410000 |  |  | binds | 
PR003739 (bispecific antibody, human IgG1, kappa, L234A L235A, light chain of PR001408; also called CD73×PD-L1 bispecific antibody PR003739) heavy: not shown light: DIQLTQSPSFLSTSVGDRVTITCRASQGISSYLAWYQQKPGKAPKLLIYAASTLQSGVPSRFSGSGSGTEFTLTISSLQPEDFATYYCQQLNSYPYTFGQGTELEIKRTVAAPSVFIFPPSDEQLKSGTASVVCLLNNFYPREAKVQWKVDNALQSGNSQESVTEQDSKDSTYSLSSTLTLSKADYEKHKVYACEVTHQGLSSPVTKSFNRGEC |  |  |  |  |  |  |  |  | EC50 [3]: 1.66 nM; EC50 [11]: 0.99 nM
PR004295 (bispecific antibody, human IgG1, kappa, L234A L235A, light chain of PR003836; also called CD73×PD-L1 bispecific antibody PR004295) heavy: not shown light: DIQMTQSPSTLSASVGDRVTITCRASQSISSWLAWYQQKPGKAPKLLIYKASSLESGVPSRFSGSGSGTEFTLTISSLQPDDFATYYCQQYDNYENTFGQGTKLEIKRTVAAPSVFIFPPSDEQLKSGTASVVCLLNNFYPREAKVQWKVDNALQSGNSQESVTEQDSKDSTYSLSSTLTLSKADYEKHKVYACEVTHQGLSSPVTKSFNRGEC |  |  |  |  |  |  |  |  | EC50 [4]: 2.17 nM; EC50 [11]: 2.09 nM
